Biological target: Spike protein of wild-type virus B. 1.499, hCoV-19/Argentina/PAIS-C0102/2020 (Andina Strain) (SARS-CoV-2)
Test: cell-based or functional assay

Binder | wildtype VN assay on Vero cells, neutralizing activity [µM]
NbCoV_39 (VHH, also called Nb 39; 39A) VHH: QVQLQESGGGLVQAGGSLRLSCAASGRTFSSTAMAWFRQAPGQEREFVATISWSGDNTKYADSVKGRFTISRDNAKNTVYLQMNSLKPEDTAVYYCAADPGNFGVPIEYFMFDYWGQGTQVTVSS | 0.4
NbCoV_43 (VHH, also called Nb 43) VHH: QVQLQESGGGLVQPGGSLRLSCVASGSIGSINHMAWFRKPPGKERELVASITLAPDEIAYYADSVKGRFAISKGNAQPTLYLQMNSLKPEDTAVYYCHFRQIRANAHDVYWGQGTQVTVSS | 0.1
NbCoV_104 (VHH, also called Nb 104) VHH: QVQLQESGGGLVQPGGSLRLSCAASGSIFRVMGWYRQAPGKEHDLVATITRSGDTNYADSVKGRFTISRDNTKNTVYLQMNNLKPEDTDVYYCYARNFVGHNPDVWGQGTQVTVSS | 0.3

Source: patent publication US20240254202A1 (CONSEJO NACIONAL DE INVESTIGACIONES CIENT FICAS Y T CNICAS …, published 2024)
